Residue numbers refer to the chain shown, from its start.
Legend:
CsrA-His6 [1] = molecular target: T1, CsrA-His6 (Escherichia coli, UniProt P69913 1-61); assay: EMSA; EMSA: 0.1 nM RNA, 10 mM MgCl2, 100 mM KCl, 32.5 ng yeast RNA, 20 mM DTT, 7.5% glycerol, 4 U SUPERasin, 30 min 37 C (pH not given); footprint: 2 nM RNA, 10 mM Tris-HCl pH 7.5, 10 mM MgCl2, 100 mM KCl, yeast RNA, acetylated BSA, 37 C; conditions: protein: recombinant; tags: His6 (C-terminal by name); chain copies: 2; label: 5'-32P
CsrA-His6 [2] = molecular target: T1, CsrA-His6; assay: EMSA; side-by-side with A(-15)G; differs from 95 nM in Fig. 6, RNA may differ; EMSA: 0.1 nM RNA, 10 mM MgCl2, 100 mM KCl, 32.5 ng yeast RNA, 20 mM DTT, 7.5% glycerol, 4 U SUPERasin, 30 min 37 C (pH not given); footprint: 2 nM RNA, 10 mM Tris-HCl pH 7.5, 10 mM MgCl2, 100 mM KCl, yeast RNA, acetylated BSA, 37 C; conditions: protein: recombinant; tags: His6 (C-terminal by name); chain copies: 2; label: 5'-32P
CsrA-His6 [3] = molecular target: T1, CsrA-His6; assay: EMSA; no effect on affinity vs WT; EMSA: 0.1 nM RNA, 10 mM MgCl2, 100 mM KCl, 32.5 ng yeast RNA, 20 mM DTT, 7.5% glycerol, 4 U SUPERasin, 30 min 37 C (pH not given); footprint: 2 nM RNA, 10 mM Tris-HCl pH 7.5, 10 mM MgCl2, 100 mM KCl, yeast RNA, acetylated BSA, 37 C; conditions: protein: recombinant; tags: His6 (C-terminal by name); chain copies: 2; label: 5'-32P
CsrA-His6 [4] = molecular target: T1, CsrA-His6; assay: EMSA; Hill coefficient 4.5; EMSA: 0.1 nM RNA, 10 mM MgCl2, 100 mM KCl, 32.5 ng yeast RNA, 20 mM DTT, 7.5% glycerol, 4 U SUPERasin, 30 min 37 C (pH not given); footprint: 2 nM RNA, 10 mM Tris-HCl pH 7.5, 10 mM MgCl2, 100 mM KCl, yeast RNA, acetylated BSA, 37 C; conditions: protein: recombinant; tags: His6 (C-terminal by name); chain copies: 2; label: 5'-32P; hairpin (mFold)

T1 sequence (P69913 whole entry): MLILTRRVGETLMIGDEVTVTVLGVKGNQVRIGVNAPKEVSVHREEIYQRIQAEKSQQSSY

B1: yqjC leader WT (ssRNA)
RNA: GGGCGGUGGUUAACACUACCGCUUCGUUGUCUGGACAAUCGUUCCUUUGUAAUAGGUCCGAAUCACAAUGGAAGGUUCAAGAAUGAAAUACCGCAUCGCUUUAGCUGUU
Kd (CsrA-His6 [1]): 95 ± 7 nM | Kd (CsrA-His6 [2]): 15 ± 9 nM

B2: yqjC leader GGA1 mutant (GGA to AAA) (ssRNA)
RNA: B1 RNA with G33A, G34A
binding result (CsrA-His6 [3]): binds

B3: yqjD BS2-BS3 fragment WT (structured_RNA)
RNA: GCGCAGGAAGAGCUGAAAAAGCUGGAAGCGC
Kd (CsrA-His6 [4]): 89 ± 6 nM

B4: elaB leader GGA to CCA (ssRNA)
RNA: GGGUUUUACGCAAAUCCAGAACGAGAAUGUCUAAUCAG
binding result (CsrA-His6 [1]): no binding

B5: elaB leader WT (ssRNA)
RNA: B4 RNA with C16G, C17G
Kd (CsrA-His6 [1]): 20 ± 8 nM
